Data from the FLAb antibody collection (doi:10.7554/elife.23156).

B1: scFv; the commonest letter at each place (parent)
chain 1: EVKLDETGGGLVQPGRPMKLSCVASGFTFSDYWMNWVRQSPEKGLEWVAQIRNKPYNYETYYSDSVKGRFTISRDDSKSSVYLQMNNLRVEDMGIYYCTGSYYGMDYWGQGTSVTVS
chain 2: DVVMTQTPLSLPVSLGDQASISCRSSQSLVHSNGNTYLRWYLQKPGQSPKVLIYKVSNRFSGVPDRFSGSGSGTDFTLKISRVEAEDLGVYFCSQSTHVPWTFGGGTKLEIK

How the values were obtained:
fluorescein = variants of: B1; assay: Kd (Tite-Seq); settings: with fluorescein; format: scFv 4-4-20, heavy + light
[1] = variants of: B1; assay: yeast surface expression (ratio to wild type); higher = more expressed; settings: format: scFv 4-4-20, heavy + light

Row | Variant | Kd (fluorescein) [µM] | yeast surface expression [1]
1 | chain 1 Y102V Y103C | ≥ 10 | 0.798
2 | chain 1 Y102M W108K | ≥ 10 | 0.392
3 | chain 1 T28I Y32C | 2.23 | 0.946
4 | chain 1 N35E V37Q | ≥ 10 | 0.427
5 | chain 1 G100W G104L W108M | ≥ 10 | 0.108
6 | chain 1 S30H M34C | 6.96 | 0.623
7 | chain 1 S101T Y107E | ≥ 10 | 0.565
8 | chain 1 F29L M34W | ≥ 10 | 0.795
9 | chain 1 F29Y V37L | ≥ 10 | 0.669
10 | chain 1 M105Y W108R | ≥ 10 | 0.286
11 | chain 1 T28Y S30L | 0.00708 | 0.792
12 | chain 1 W33F N35Q | ≥ 10 | 0.614
13 | chain 1 G104D Y107D | ≥ 10 | 0.716
14 | chain 1 W33L V37D | 1.47 | 0.591
15 | chain 1 S101I Y102T | ≥ 10 | 0.614
16 | chain 1 Y32P V37Y | ≥ 10 | 0.716
17 | chain 1 Y32G M34N | ≥ 10 | 0.613

Row | Variant | Kd (fluorescein) [µM] | yeast surface expression [1]
18 | chain 1 Y32I M34S | ≥ 10 | 0.65
19 | chain 1 S101M Y103G | ≥ 10 | 0.868
20 | chain 1 W33C M34Q | ≥ 10 | 0.755
21 | chain 1 Y32K N35R | ≥ 10 | 0.103
22 | chain 1 F29A M34V | ≥ 10 | 0.827
23 | chain 1 F29N S30P M34H | ≥ 10 | 0.781
24 | chain 1 G100L G109R | ≥ 10 | 0.268
25 | chain 1 F29Y D31P | ≥ 10 | 0.888
26 | chain 1 Y102L M105I | ≥ 10 | 1.57
27 | chain 1 G100D S101I | ≥ 10 | 0.0999
28 | chain 1 W33Q | ≥ 10 | 1.01
29 | chain 1 F29Y Y32S | ≥ 10 | 0.95
30 | chain 1 Y103V Y107V | ≥ 10 | 0.603
31 | chain 1 Y32I W36P | 0.0391 | 0.723
32 | chain 1 S30K Y32E | ≥ 10 | 0.857
33 | chain 1 S101F W108E | ≥ 10 | 0.216

Continued, in another order:

Row | Kd (fluorescein) [µM] | Variant | yeast surface expression [1]
34 | ≥ 10 | chain 1 W33H V37F | 0.859
35 | ≥ 10 | chain 1 S101Q G104R | 0.384
36 | ≥ 10 | chain 1 D106L W108M | 0.541
37 | 0.0624 | chain 1 T28Q F29Q V37S | 0.421
38 | 2.23 | chain 1 T28I Y32S | 0.842
39 | ≥ 10 | chain 1 Y103N D106N W108T | 0.736
40 | ≥ 10 | chain 1 F29H W36D | 0.486
41 | ≥ 10 | chain 1 S101D D106C W108N | 0.369
42 | 1.63 | chain 1 Y102V M105Q | 0.736
43 | 0.522 | chain 1 Y102V M105N | 1.01
44 | ≥ 10 | chain 1 G104K Y107N | 0.424
45 | ≥ 10 | chain 1 G100D M105W W108Y | 0.168
46 | ≥ 10 | chain 1 S30I M34N | 0.512
47 | 0.00226 | chain 1 Y102V Y107F | 0.877
48 | ≥ 10 | chain 1 G104H D106H | 0.586
49 | 0.0353 | chain 1 T28V M34S | 0.593
50 | ≥ 10 | chain 1 Y32G M34C | 0.676
51 | ≥ 10 | chain 1 D31M Y32N | 0.536
52 | ≥ 10 | chain 1 F29R V37S | 0.385
53 | 0.0335 | chain 1 M105I | 0.914
54 | 0.00361 | chain 1 S30A M34Y | 0.977
55 | ≥ 10 | chain 1 Y32W M34W | 0.838
56 | ≥ 10 | chain 1 N35G V37K | 0.46
57 | ≥ 10 | chain 1 T28L W33S | 0.867
58 | ≥ 10 | chain 1 Y102H D106I | 0.595
